Numbering of substitutions follows the chain as printed.

For assay [1], the target named is T1, PD-1 (analyte of the SPR assay of Example 3) (human, UniProt Q15116 21-167, limits assumed).
T1 construct: also called human PD-1
Kind of assay: SPR (Biacore 8K), antibody captured by anti-human Fc, PD-1 as analyte. The procedure: Anti-human Fc gamma specific antibody (Jackson ImmunoResearch #109-005-098) was immobilized onto the sensor chip using amine coupling method. […] After equilibration, PD-1 was injected for 200 seconds (association phase) followed by the injection of running buffer for 600s (dissociation phase). Responses of reference flow cell (flow cell 1) were subtracted from those of humanized antibodies flow cells during each cycle. The surface was regenerated before the injection of other humanized antibodies. The process was repeated until all antibodies are analyzed. The off-rates of humanized antibodies were obtained from fitting the experimental data locally to 1:1 interaction model using the Biacore 8K evaluation software. The antibodies were ranked by their dissociation rate constants (off-rates, kd).
For orientation: In SPR one partner is held on a chip, and binding of the other changes the refractive index at the surface.

For assay [2], the target named is T2, chimeric PD-1 receptor on Jurkat cells (Jurkat/PD-1-CD3z/NF-luci cells) (human, UniProt Q15116 25-191; P20963 52-164, limits assumed). Description: cell-based or functional assay.
T2 sequence (Q15116 other isoform, or with tags, fused parts or gaps mutant limits assumed): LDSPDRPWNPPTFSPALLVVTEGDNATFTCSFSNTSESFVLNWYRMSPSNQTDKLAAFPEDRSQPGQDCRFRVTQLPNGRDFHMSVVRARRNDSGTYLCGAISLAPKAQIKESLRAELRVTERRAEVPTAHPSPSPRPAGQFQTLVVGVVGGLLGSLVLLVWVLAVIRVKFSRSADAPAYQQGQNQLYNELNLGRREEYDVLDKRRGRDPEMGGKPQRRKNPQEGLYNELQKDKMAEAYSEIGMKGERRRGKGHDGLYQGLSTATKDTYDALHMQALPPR
For assay [3], the target named is T2, chimeric PD-1 receptor on Jurkat cells …. Description: flow cytometry on human PD-1-expressing Jurkat cells. The procedure:
Then cells were washed once by FACS buffer (PBS with 2% FBS) and incubated with Alexa Fluor 594 AffiniPure Goat Anti-human IgG secondary antibody (Jackson ImmunoResearch #109-585-088) at 4° C. for 30 minutes. After washed once by FACS buffer, cells were resuspended in 200 μL FACS buffer. The cells after staining were analyzed by BD LSRFortessa Flow Cytometer.
Background: In flow cytometry, cells or beads pass a laser one at a time.

Assay [4] deals with T3, his-tagged human PD-1 recombinant protein (PD-1/6His, in-house production, extracellular domain Pro21-Gln167) (human, UniProt Q15116 21-167).
T3 construct: range 21-167; also called human PD-1/His; not shown: 6His tag
T3 sequence (Q15116 21-167 limits assumed): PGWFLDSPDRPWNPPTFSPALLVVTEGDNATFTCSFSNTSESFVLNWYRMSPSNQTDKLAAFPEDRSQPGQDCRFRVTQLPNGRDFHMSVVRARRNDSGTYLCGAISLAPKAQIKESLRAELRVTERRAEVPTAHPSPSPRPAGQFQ
Description: ELISA, plate coated with human PD-1/His; human PD-1. The method, then:
(§1) MaxiSorp 96-well plates (NUNC #449824) were coated with 2 μg/mL human PD-1/His (in-house production) or cynomolgus PD-1/His protein (ACROBiosystems #PD1-C5223) in 1× PBS (50 μL/well). Plates were incubated at 4° C. overnight. Coating solution was removed and plates were washed once with 200 μL/well PBST (1× PBS containing 0.05% tween-20). Then 200 μL/well blocking buffer (1× PBS with 0.05% tween-20, 3% BSA) was added and incubated at room temperature for 1 hour. Blocking buffer was removed and plates were washed with three times with 200 μL/well PBST. […] Plates were incubated at room temperature for 2 hours. Antibodies in the wells were removed and plates were washed three times with 200 μL/well PBST. Goat anti-human IgG (H&L)-HRP secondary antibody (Jackson Immuno Research #109-035-088) was diluted 1:5000 in 1× PBS and added to each well (50 μL/well). Plates were incubated at room temperature for 1 hour. Secondary antibody was removed and plates were washed five times with 200 μL/well PBST. 50 μL/well TMB (eBioscience #85-00-4201-56) was added and plates were incubated at room temperature for several minutes. Then 50 μL/well 2N H2SO4 was added to stop the reaction. Optical density was measured at 450 nm.
In general terms: An ELISA detects its analyte on a solid surface through an enzyme-linked reagent.

For assay [5], the target named is T4, cynomolgus PD-1/His protein (ACROBiosystems #PD1-C5223) (cynomolgus, UniProt B0LAJ3 25-170).
T4 construct: Commercial protein
T4 sequence (B0LAJ3 entry or part of it limits assumed): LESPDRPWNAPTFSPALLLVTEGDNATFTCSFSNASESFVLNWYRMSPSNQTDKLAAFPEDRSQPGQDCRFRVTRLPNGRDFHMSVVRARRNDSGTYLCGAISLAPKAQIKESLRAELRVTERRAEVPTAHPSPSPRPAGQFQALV
Kind of assay: ELISA, plate coated with cynomolgus PD-1/His. The procedure: as §1

T1 sequence (Q15116 21-167 limits assumed): as the sequence (Q15116 21-167 limits assumed) above

B1: VH6 + VL1 (antibody, human IgG1, kappa, V domains shown)
VH: EVQLVESGGGLVQPGGSLRLSCAASGFTFSSYGMSWVRQAPGKRLEWVAIISGGGRDIYYLDSVKGRFTISRDNSKNTLYLQMNSLRAEDTAVYYCSSPIYDAYSFAYWGQGTLVTVSS
VL: EIVMTQSPATLSVSPGERATLSCRASQTISNNLHWYQQKPGQAPRLLIYYASQSISGIPARFSGSGSGTEFTLTISSLQSEDFAVYYCQQSYSWPLTFGGGTKLEIKR
notes: Humanized full-length IgG expressed in HEK293; For SPR it was captured from culture medium through its Fc; also called HC1 + LC1
Broadly, the Kd is the constant that tells how readily two partners part at equilibrium. Lower therefore signals tighter binding. For orientation: koff means the rate constant with which the complex falls apart. One may read the kon as a measure of how fast the partners come together. Low readings indicate slow association, high ones fast association. In assay [1], B1 had a Kd of 3.57 nM, a dissociation rate constant (koff) of 0.000404 s⁻¹ and a kon of 113000 M⁻¹ s⁻¹.

B2: anti-PD-1 antibody VH7+VL6 (antibody, human IgG1, kappa, V domains shown)
VH: B1 VH with R44G, T78N
VL: B1 VL with M4L, Q37H, Y49K, A60S, E70D, Y87F
notes: also called HC2 + LC2
Usually EC50 stands for the concentration at which the effect is half-maximal. As to B2, the “EC50 (nM), inhibition of luciferase signal” value in assay [2] worked out at 0.38 nM. Further, the concentration for a half-maximal effect (EC50) in assay [3] was 2.16 nM. Besides, in assay [4], the concentration for a half-maximal effect (EC50) is 0.1 nM. In assay [1], this molecule gave a Kd of 1.41 nM, a koff of 0.000218 s⁻¹ and a kon of 154000 M⁻¹ s⁻¹. The same molecule gave an EC50 in assay [5] of 0.4 nM.

B3: VH7 + VL1 (antibody, human IgG1, kappa, V domains shown)
VH: B1 VH with R44G, T78N
VL: B1 VL
notes: Humanized full-length IgG expressed in HEK293; also called HC2 + LC1
With B3, in assay [1], the equilibrium dissociation constant (Kd) stood at 3.04 nM, the koff came out at 0.000317 s⁻¹ and the on-rate (kon) was 104000 M⁻¹ s⁻¹.

B4: VH6 + VL6 (antibody, human IgG1, kappa, V domains shown)
VH: B1 VH
VL: B1 VL with M4L, Q37H, Y49K, A60S, E70D, Y87F
notes: Humanized full-length IgG expressed in HEK293; also called HC1 + LC2
With B4, in assay [1], the dissociation constant (Kd) was 0.812 nM, the dissociation rate constant (koff) amounted to 0.000127 s⁻¹ and the kon was found to be 156000 M⁻¹ s⁻¹.

B5: Chimeric VH + VL (antibody, human IgG1, kappa, V domains shown)
VH: EVKLVESGGGLVKPGGSLKLSCAASGFTFSSYGMSWVRQTPEKRLEWVAIISGGGRDIYYLDSVKGRFTISRDNAKNNLYLQMSSLRSEDTAFYYCSSPIYDAYSFAYWGQGTLVTVSA
VL: DIVLVQSPATLSVTPGDSVSLSCRASQTISNNLHWYHQKSHESPRLLIKYASQSISGIPSRFSGSGSGTDFTLSINSVETEDFGMYFCQQSYSWPLTFGAGTNLELKR
notes: also called Parental mouse VH+VL combined with human Fc; parental antibody
In assay [1], B5 registered an equilibrium dissociation constant (Kd) of 0.787 nM, a dissociation rate constant (koff) of 0.000163 s⁻¹ and an association rate constant (kon) of 207000 M⁻¹ s⁻¹.

These data come from patent US20240239892A1 (SUZHOU KANOVA BIOPHARMACEUTICAL, published 2024).
